From article PMC4689616 (Nature cell biology, 2015) come the findings set out here.

One experiment addresses T1, TTC7B(9-843) (UniProt Q86TV6 9-843).
T1 sequence: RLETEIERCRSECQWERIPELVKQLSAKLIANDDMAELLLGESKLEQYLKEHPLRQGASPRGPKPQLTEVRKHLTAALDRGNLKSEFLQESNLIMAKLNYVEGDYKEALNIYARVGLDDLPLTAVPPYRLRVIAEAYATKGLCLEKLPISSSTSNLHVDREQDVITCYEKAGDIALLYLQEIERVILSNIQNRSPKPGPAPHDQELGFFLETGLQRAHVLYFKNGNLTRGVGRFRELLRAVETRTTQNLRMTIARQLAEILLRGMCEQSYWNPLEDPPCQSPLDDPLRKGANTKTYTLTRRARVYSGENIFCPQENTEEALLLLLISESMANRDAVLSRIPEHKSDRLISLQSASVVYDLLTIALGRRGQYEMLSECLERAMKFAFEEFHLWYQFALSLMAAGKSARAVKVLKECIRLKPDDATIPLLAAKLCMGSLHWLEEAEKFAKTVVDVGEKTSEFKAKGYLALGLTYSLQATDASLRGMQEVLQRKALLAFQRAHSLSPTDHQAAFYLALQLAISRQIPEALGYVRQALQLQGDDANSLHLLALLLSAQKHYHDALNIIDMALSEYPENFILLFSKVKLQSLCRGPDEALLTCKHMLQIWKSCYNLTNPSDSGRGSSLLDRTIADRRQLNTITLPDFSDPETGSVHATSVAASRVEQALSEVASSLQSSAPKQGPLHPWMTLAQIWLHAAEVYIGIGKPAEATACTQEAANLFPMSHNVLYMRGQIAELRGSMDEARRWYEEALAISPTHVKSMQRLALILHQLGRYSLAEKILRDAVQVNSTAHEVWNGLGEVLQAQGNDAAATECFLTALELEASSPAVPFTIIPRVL
Description: SEC.

For experiment [1], the target named is 3xFLAG-PI4KIIIα (wild-type) (UniProt P42356-1 1-2102). In words: pull-down.

B1: FAM126A(2-308) (domain or fragment)
chain: FTSEKGVVEEWLSEFKTLPETSLPNYATNLKDKSSLVSSLYKVIQEPQSELLEPVCHQLFEFYRSGEEQLLQFTLQFLPELIWCYLAVSASRNVHSSGCIEALLLGVYNLEIVDKQGHTKVLSFTIPSLSKPSVYHEPSSIGSMALTESALSQHGLSKVVYSGPHPQREMLTAQNRFEVLTFLLLCYNAALTYMPSVSLQSLCQICSRICVCGYPRQHVRKYKGISSRIPVSSGFMVQMLTGIYFAFYNGEWDLAQKALDDIIYRAQLELYPEPLLVANAIKASLPHGPMKSNKEGTRCIQVEITPT
For B1, the binding result with TTC7B(9-843) is on record as “binds”.

B2: GST-FAM126A-N/TTC7B dimer (complex)
chain 1: B1 chain
chain 2: T1 sequence
For the molecule B2, in experiment [1], the binding result is reported as “binds”.
